Measured values from US20040110161, “Method for detecting mutations in nucleotide sequences” (published 2004).

What was measured:
MutS (Cy5-labeled) [1] = biological target: T1, MutS (Cy5-labeled) (Escherichia coli, UniProt P23909 P23909:1-853); assay: EMSA; 150 mM KCl, 10 mM MgCl2; labeled and unlabeled; conditions: tags: Cy5 nonspecific amine label; also Gene Check unlabeled in EMSA; label: 5'-biotin (SPR); 5'-32P (EMSA); G/T mismatch
T1 sequence: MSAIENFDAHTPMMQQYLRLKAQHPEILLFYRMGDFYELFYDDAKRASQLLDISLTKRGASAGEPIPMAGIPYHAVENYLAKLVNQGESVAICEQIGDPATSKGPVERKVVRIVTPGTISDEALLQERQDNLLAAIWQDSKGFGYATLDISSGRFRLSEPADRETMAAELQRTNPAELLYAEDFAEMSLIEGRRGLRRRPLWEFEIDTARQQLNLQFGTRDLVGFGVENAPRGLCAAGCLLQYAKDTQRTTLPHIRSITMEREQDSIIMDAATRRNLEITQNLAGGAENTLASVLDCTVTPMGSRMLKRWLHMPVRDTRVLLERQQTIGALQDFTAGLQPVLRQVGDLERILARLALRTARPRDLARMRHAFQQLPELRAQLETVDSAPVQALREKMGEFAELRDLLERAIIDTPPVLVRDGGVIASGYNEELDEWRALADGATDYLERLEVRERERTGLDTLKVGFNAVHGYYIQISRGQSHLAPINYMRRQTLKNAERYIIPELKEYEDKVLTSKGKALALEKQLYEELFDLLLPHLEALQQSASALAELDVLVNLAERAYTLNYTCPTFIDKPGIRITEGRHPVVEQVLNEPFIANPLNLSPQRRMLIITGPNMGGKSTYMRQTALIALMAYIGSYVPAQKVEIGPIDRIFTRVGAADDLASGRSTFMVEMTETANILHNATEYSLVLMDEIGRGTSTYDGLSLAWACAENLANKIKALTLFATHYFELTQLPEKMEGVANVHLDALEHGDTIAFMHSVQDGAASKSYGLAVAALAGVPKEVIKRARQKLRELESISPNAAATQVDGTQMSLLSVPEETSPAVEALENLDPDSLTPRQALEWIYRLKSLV
Procedure: Subsequently, the band shift method was used to check whether the Cy™5-conjugated mutS proteins were functionally active, i.e. whether they were still able to bind specifically to base mispairings. For this, heteroduplexes were generated by hybridizing the oligonucleotides […] (Seq. ID No. 6) and “GT” (Seq. ID No. 7), respectively, with the “sense” oligonucleotide (Seq. ID No. 11) by heating for 5 minutes at 95° C. in […] tris-HCl, 100 mM KCl, 5 mM MgCl₂, followed by cooling slowly down to room temperature. […] Using T₄ polynucleotide kinase (New England Biolabs, Frankfurt), 10 pmol each of the two heteroduplexes which wer produced using the “AT” and “GT” oligonucleotides were radioactively labeled, in accordance with the manufacturer's instructions, with 150 μCi of ³²P-ATP at their 5′ ends and purified through Sephadex G50 gel filtration columns (Pharmacia, Uppsala, Sweden) in accordance with the manufacturer's instructions. […] After the run, the gels were dried and analyzed by autoradiography (FIG. 6).

[2] = biological target: T2, MBP-MutS fusion (Cy5-labeled) (Escherichia coli, UniProt P23909 P23909:1-853); assay: hydrogel chip fluorescence; conditions: label: 5'-biotin, 5'-Cy3
T2 chain: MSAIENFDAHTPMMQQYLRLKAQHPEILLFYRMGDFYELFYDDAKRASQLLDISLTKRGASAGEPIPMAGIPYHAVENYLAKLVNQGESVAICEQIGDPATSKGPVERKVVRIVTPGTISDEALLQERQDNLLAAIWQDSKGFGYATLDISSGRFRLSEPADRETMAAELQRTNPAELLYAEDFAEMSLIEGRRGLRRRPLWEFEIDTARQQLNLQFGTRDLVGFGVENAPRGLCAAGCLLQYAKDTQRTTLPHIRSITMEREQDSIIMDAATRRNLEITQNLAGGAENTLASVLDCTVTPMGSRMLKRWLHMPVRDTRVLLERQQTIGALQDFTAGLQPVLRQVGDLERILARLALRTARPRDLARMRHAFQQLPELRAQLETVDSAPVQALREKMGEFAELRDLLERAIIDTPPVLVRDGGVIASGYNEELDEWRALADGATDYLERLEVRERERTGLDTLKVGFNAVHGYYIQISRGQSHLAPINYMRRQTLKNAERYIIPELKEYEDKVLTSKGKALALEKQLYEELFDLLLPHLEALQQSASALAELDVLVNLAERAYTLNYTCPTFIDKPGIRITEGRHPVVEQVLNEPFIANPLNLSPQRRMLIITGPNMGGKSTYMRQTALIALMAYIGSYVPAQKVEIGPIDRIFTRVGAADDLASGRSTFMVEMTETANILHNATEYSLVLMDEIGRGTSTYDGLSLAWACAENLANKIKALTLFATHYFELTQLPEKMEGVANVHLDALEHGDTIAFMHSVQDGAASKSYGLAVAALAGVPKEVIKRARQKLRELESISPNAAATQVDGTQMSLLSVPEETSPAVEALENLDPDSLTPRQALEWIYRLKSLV
Text: (§1) The biotinylated “sense” oligonucleotide (Seq. ID No. 10) was electronically addressed to the individual positions on the hydrogel chip, for 60 sec. and at a voltage of 2.1 V, in the Nanogen workstation loading appliance. The hybridization with the second-strand AT (Seq. ID No. 12), GT (Seq. ID No. 13), AA (Seq. ID No. 14), AG (Seq. ID No. 15), CA (Seq. ID No. 16), CC (Seq. ID No. 17), CT (Seq. ID No. 18), GG (Seq. ID No. 19), TT (Seq. ID No. 20), ins+1T (Seq. ID No. 21), ins+2T (Seq. ID No. 22) and ins+3T (Seq. ID No. 23) oligonucleotides was carried out for 120 sec. at 2.1 V. The loading scheme is shown in Table 45; the name of each second-strand oligonucleotide indicates the mispairing or insertion (“ins”) which is formed on hybridization.
(§2) After the loading, the chips were taken out of the loading appliance, filled with 1 ml of blocking buffer and incubated at room temperature for 60 min in order to saturate nonspecific protein-binding sites. The binding of E.coli mutS (ChipA), MBP-MutS (ChipB), Thermus aquaticus mutS (ChipC) and Thermus thermophilus mutS (Chip D) to the resulting DNA double strands was then tested. For this, the chips were incubated for 60 min with in each case 2-3 μg of the Cy™5-labeled mutS proteins in 100 μl of incubation buffer. The chips which were incubated with E.coli mutS and MBP mutS were incubated at room temperature while the chips which were incubated with Thermus aquaticus mutS and Thermus thermophilus mutS were incubated at 37° C. After this incubation, the chips were washed by hand with 10 ml of incubation buffer and inserted into the Nanogen reader. In the reader, the chips were washed, at a temperature of 37° C. (E.coli mutS and MBP-mutS) or 50° C. (Thermus aquaticus mutS and Thermus thermophilus mutS), 70-80× with in each case 0.25 ml of washing buffer.
(§3) Finally, the Cy™3 and Cy™5 fluorescence intensities at the individual positions on the chips were measured in the Nanogen reader using the following instrument settings: high sensitivity (“high gain”) in the case of Cy™5, low sensitivity (“low gain”) in the case of CY™3; 256 μs integration time. Care was taken to ensure that the Cy™3 fluorescence intensity was distributed homogeneously over the chip surface.

MutS (Cy5-labeled) [3] = biological target: T1, MutS (Cy5-labeled); assay: hydrogel chip fluorescence; conditions: tags: Cy5 nonspecific amine label, also Gene Check unlabeled in EMSA
Text: as §1, §2, §3

MutS (Cy5-labeled) [4] = biological target: T1, MutS (Cy5-labeled); assay: impedance spectroscopy; no or only very slight binding; conditions: tags: Cy5 nonspecific amine label; also Gene Check unlabeled in EMSA; hairpin
Procedure: (§4) The individual electrodes were measured in aqueous K₃/K₄Fe(CN)₆ solution (Darmstadt, Germany) (20 mM in 20 mM tris buffer, 100 mM KCl, 5 mM MgCl), in the frequency range from 100 mHz to 1 MHz […], before and after incubating with mutS. The measured values are shown in the Bode diagram. The measurements were carried out, at room temperature, on an IM 6e impedance measuring desk supplied by Zahner Messtechnik.
(§5) The advantage of this method is that it is possible to carry out measurements on the samples without destroying them and without using labels. The mutation-recognizing E. coli mutS protein was used as a model system for the binding of mispairing-recognizing substrates, while Seq. ID Nos. 50 and 51 were used as duplex-forming oligonucleotides. […] The results of the measurement are depicted in FIGS. 29A and 29B.

MutS (Cy5-labeled) [5] = biological target: T1, MutS (Cy5-labeled); assay: impedance spectroscopy; 100 mM KCl, 5 mM MgCl2; conditions: tags: Cy5 nonspecific amine label; also Gene Check unlabeled in EMSA; hairpin, two G/T mismatches
Procedure: as §4, §5

B1: sense(36)/GT (dsDNA)
DNA 1: AAGCATACGGAAGTTAAAGTGCGGATCATCTCTAGC
DNA 2: TGGCTAGAGATGATCCGCGCTTTAACTTCCGTATGC
Q: Does B1 bind (MutS (Cy5-labeled) [1])?
A: binds

B2: sense/AA mismatch (dsDNA)
DNA 1: AAGCATACGGAAGTTAAAGTGCGGATCATCTCTAGCCA
DNA 2: TGGCTAGAGATGATCCGCACATTAACTTCCGTATGC
Q: Which binding signal ([2]; A/A mismatch) does the source give for B2 here?
A: 4.03 fold vs AT

Q: And the binding signal (MutS (Cy5-labeled) [3]; label: 5'-biotin, 5'-Cy3, A/A mismatch)?
A: 13 fold vs AT

B3: sense/TT mismatch (dsDNA)
DNA 1: AAGCATACGGAAGTTAAAGTGCGGATCATCTCTAGCCA
DNA 2: TGGCTAGAGATGATCCGCTCTTTAACTTCCGTATGC
Q: With B3 as the binder, how does the binding signal ([2]; T/T mismatch) read?
A: 1.94 fold vs AT

Q: And the binding signal (MutS (Cy5-labeled) [3]; label: 5'-biotin, 5'-Cy3, T/T mismatch)?
A: 1.82 fold vs AT

B4: sense/AC mismatch (dsDNA)
DNA 1: AAGCATACGGAAGTTAAAGTGCGGATCATCTCTAGCCA
DNA 2: TGGCTAGAGATGATCCGCACCTTAACTTCCGTATGC
Q: For B4, which binding signal ([2]; A/C mismatch) is on record?
A: 2.53 fold vs AT

Q: What about the binding signal (MutS (Cy5-labeled) [3]; label: 5'-biotin, 5'-Cy3, A/C mismatch) of the same binder?
A: 5.73 fold vs AT

B5: sense/AG mismatch (dsDNA)
DNA 1: AAGCATACGGAAGTTAAAGTGCGGATCATCTCTAGCCA
DNA 2: TGGCTAGAGATGATCCGCAATTTAACTTCCGTATGC
Q: Which binding signal ([2]; A/G mismatch) does the source give for B5 here?
A: 2.72 fold vs AT

Q: And the binding signal (MutS (Cy5-labeled) [3]; label: 5'-biotin, 5'-Cy3, A/G mismatch)?
A: 3.34 fold vs AT

B6: sense/GG mismatch (dsDNA)
DNA 1: AAGCATACGGAAGTTAAAGTGCGGATCATCTCTAGCCA
DNA 2: TGGCTAGAGATGATCCGCAGTTTAACTTCCGTATGC
Q: B6 was tested. Which binding signal ([2]; G/G mismatch) did it give?
A: 6.5 fold vs AT

Q: What about the binding signal (MutS (Cy5-labeled) [3]; label: 5'-biotin, 5'-Cy3, G/G mismatch) of the same binder?
A: 18.4 fold vs AT

B7: sense/GT mismatch (dsDNA)
DNA 1: AAGCATACGGAAGTTAAAGTGCGGATCATCTCTAGCCA
DNA 2: TGGCTAGAGATGATCCGCGCTTTAACTTCCGTATGC
Q: Which binding signal ([2]; G/T mismatch) does the source give for B7 here?
A: 22.3 fold vs AT

Q: What about the binding signal (MutS (Cy5-labeled) [3]; label: 5'-biotin, 5'-Cy3, G/T mismatch) of the same binder?
A: 29 fold vs AT

B8: sense/CT mismatch (dsDNA)
DNA 1: AAGCATACGGAAGTTAAAGTGCGGATCATCTCTAGCCA
DNA 2: TGGCTAGAGATGATCCGCCCTTTAACTTCCGTATGC
Q: How did the binding signal ([2]; C/T mismatch) turn out when B8 was run?
A: 3.56 fold vs AT

Q: What about the binding signal (MutS (Cy5-labeled) [3]; label: 5'-biotin, 5'-Cy3, C/T mismatch) of the same binder?
A: 6.24 fold vs AT

B9: sense/AT perfect duplex (dsDNA)
DNA 1: AAGCATACGGAAGTTAAAGTGCGGATCATCTCTAGCCA
DNA 2: TGGCTAGAGATGATCCGCACTTTAACTTCCGTATGC
Q: Which binding signal (MutS (Cy5-labeled) [3]; label: 5'-biotin sense, 5'-Cy3 AT) does the source give for B9 here?
A: 1 fold vs AT

B10: sense/CC mismatch (dsDNA)
DNA 1: AAGCATACGGAAGTTAAAGTGCGGATCATCTCTAGCCA
DNA 2: TGGCTAGAGATGATCCCCACTTTAACTTCCGTATGC
Q: B10 was tested. Which binding signal (MutS (Cy5-labeled) [3]; label: 5'-biotin, 5'-Cy3, C/C mismatch) did it give?
A: 1.37 fold vs AT

Q: Does ATTCGATCGGGGCGGGGCGAGCTTTTGCTCGCCCCGCCCCGATCGAAT (structured_DNA, 5'-SH, amino modifier X in loop) [hairpin perfectly paired] bind (MutS (Cy5-labeled) [4])?
A: no binding

Q: Does ATTCGATCGGGGCGGGGCGAGCTTTTTGCTCGCCTTGCCCCGATCGAAT (structured_DNA, 5'-SH, amino modifier X in loop) [hairpin with two GT mispairings] bind (MutS (Cy5-labeled) [5])?
A: binds
